Source: PMC8560819, “Dynamic interactions and Ca^2+-binding modulate the holdase-type chaperone activity of S100B preventing tau aggregation and seeding” (Nature Communications, 2021)

B1: S100B (natural protein)
chain: MSELEKAMVALIDVFHQYSGREGDKHKLKKSELKELINNELSHFLEEIKEQEVVDKVMETLDNDGDGECDFQEFMAFVAMVTTACHEFFEHE
notes: the crystal structure PDB 2H61 and the assignment BMRB 27199 were used for it; Used unlabelled or uniformly 15N-labelled (M9 medium with 15N-ammonium chloride); also called S100B-Ca^2+; apo S100B

What was measured:
S100B = molecular target: B1; test: NMR titration; 100 µM 15N-S100B titrated with 50 to 750 µM tau peptide; 50 mM Hepes pH 6.8, 1.25 mM CaCl2, 298 K; Kd from chemical shift perturbation of 11 resonances; details: both partners purified
[1] = molecular target: the molecule itself; test: SEC-SAXS; Superdex 200 (3.2/300), 50 mM Tris-HCl, 100 mM NaCl, 2% glycerol, 2 mM CaCl2, pH 7.9; S100B alone, S100B mixed with equimolar K18, or K18 alone, 12–13 mg/ml

Kd (S100B) | Binder | stoichiometry N [1]
163 µM | Ac-PGGGKVQIINKK-NH2 (12-residue tau peptide within K18 that holds PHF6* (275-VQIINK-280); source: synthetic peptide, bought: Genecust (France)) [R2 peptide] | –
266 µM | Ac-PGGGSVQIVYKP-NH2 (12-residue tau peptide within K18 that holds PHF6 (306-VQIVYK-311); source: synthetic peptide, bought: Genecust (France)) [R3 peptide] | –
519 µM | Ac-REPKKVAVVRTP-NH2 (12-residue tau peptide from the proline-rich region, holds Thr231; also called RO; source: synthetic peptide, bought: Genecust (France)) [R0 peptide] | –
– | B1 | 2
